Here are results for 26 variants from the supplement of paper PMC7125110.

The chains are these.
B1: glmS ribozyme (parent)
chain: AUAAAAGCGCCAGAACUACAGAAAUGUAGUUGACGAGGAGGAGGUUUAUCGAAUUUUCGGCGGAUGCCUCCAAA

Common to all, as to conditions: with glucosamine-6-phosphate
In data set [1] the parent is B1. In words: self-cleavage kobs at 40 uM GlcN6P; higher = faster cleavage; RNA array. A digest of the protocol:
(§1)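 Over ~14 h at 37 °C, tiles were imaged as glucosamine-6-phosphate (40 μM to 10 mM) in HEPES/KCl/Mg(OAc)2 buffer flowed across sequenced MiSeq chips. The chips carried barcoded ribozyme variants transcribed in situ by E. coli RNA polymerase and tracked with a hybridised Cy3 probe. After normalisation to baseline and to non-cleaving reference variants, one- or two-exponential decay fits of per-tile medians gave kobs. kcat and KM followed from weighted Michaelis–Menten fits across concentrations.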

Data set [2] covers variants of B1. In words: self-cleavage kobs at 10000 uM GlcN6P; higher = faster cleavage; RNA array. A digest of the protocol: as §1
The variants in data set [3] derive from B1. The data set is described as follows: self-cleavage kobs at 160 uM GlcN6P; higher = faster cleavage; RNA array. In short, it runs like this: as §1
Variants of B1 are the subject of data set [4]. The data set is described as follows: self-cleavage kobs at 640 uM GlcN6P; higher = faster cleavage; RNA array. In short, it runs like this: as §1
The variants in data set [5] derive from B1. The data set is described as follows: self-cleavage kobs at 2500 uM GlcN6P; higher = faster cleavage; RNA array. In short, it runs like this: as §1

± gives the standard error. Fewer inactive variants are shown than the library holds. Bounds are passed on as bounds.

In the case of AUAAAAGCGCACGAACUACAGAAAUGUAGUUGACGAGUAGGAGGUUUAUCGAAUUUUCGGCGGAUGCCACCAAA [C11A A12C G38U U69A], the “self-cleavage kobs at 40 uM GlcN6P” value in data set [1] turned out to be 0.000405 ± 0.00012 s⁻¹. In addition, the “self-cleavage kobs at 10000 uM GlcN6P” value in data set [2] was found to be 4.3e-05 ± 2e-05 s⁻¹.

In the case of AUAAAAGCGCCAGAACUACAGAAAUGUAGUUGACGAGGAGGAGAUUUAUCGAAUUUUCGGCGGAUGCCUCAAAA [G44A C71A], the “self-cleavage kobs at 40 uM GlcN6P” value in data set [1] is below 1e-05 s⁻¹. The “self-cleavage kobs at 160 uM GlcN6P” value in data set [3] is below 1e-05 s⁻¹. Also, in data set [4], the “self-cleavage kobs at 640 uM GlcN6P” value is below 1e-05 s⁻¹. Also, the “self-cleavage kobs at 2500 uM GlcN6P” value in data set [5] is below 1e-05 s⁻¹.

AUAAAAGCGCCAGAACUACAGAAAUGUAGUUGACGACGAGGAGGUUUAUCGAAUUUUCGGCGGAUGCAUCCAAA [G37C C68A]: in data set [1], the “self-cleavage kobs at 40 uM GlcN6P” value was below 1e-05 s⁻¹. Besides, the “self-cleavage kobs at 10000 uM GlcN6P” value in data set [2] was below 1e-05 s⁻¹.

For the variant AUAAAAGCGCCAGAACUACAGAAAUGUAGUCGACGAGGAGGAGGAUUAUCGAAUUUUCGACGGAUGACUCCAAA [U31C U45A G60A C67A], the “self-cleavage kobs at 40 uM GlcN6P” value in data set [1] is below 1e-05 s⁻¹. For the same variant, the “self-cleavage kobs at 160 uM GlcN6P” value in data set [3] is below 1e-05 s⁻¹.

As for AUAAAAGCGCCAGAACUACAGAAAUGUAGUUGAGGAAGAGGAGCUUUAUGGAGUUUUCGGCGGAUUCCUCCAAA [C34G G37A G44C C50G A53G G66U], in data set [1], the “self-cleavage kobs at 40 uM GlcN6P” value was below 1e-05 s⁻¹. Further, the “self-cleavage kobs at 10000 uM GlcN6P” value in data set [2] is below 1e-05 s⁻¹.

On to AUAAAAACGCCAGAACUACAGAAAUGUAGUUGACGAGGAGGAGGUUUUGCGAAUUUUCGGCGGAUGCCUCCAAA [G7A A48U U49G], for which the “self-cleavage kobs at 40 uM GlcN6P” value in data set [1] is below 1e-05 s⁻¹. Also, in data set [2], the “self-cleavage kobs at 10000 uM GlcN6P” value was below 1e-05 s⁻¹.

As to AUAAAAGCGCCCGAACUACAGAAAUGUAGUUGCCGAGGCGGAGGUUUAUCGAAUUUUCGGCGGAUGCCUCCAAA [A12C A33C A39C], in data set [1], the “self-cleavage kobs at 40 uM GlcN6P” value is below 1e-05 s⁻¹.

In the case of AUAAAAGCGCGAGAACUACAGAAAUGUAGUUGACCAGGAGGAGGUUUAUCGAAUUUUCGGCGGAUGCCUGCAAA [C11G G35C C70G], the “self-cleavage kobs at 40 uM GlcN6P” value in data set [1] was 8.82e-05 ± 4e-05 s⁻¹.

For the variant AUAAAAGCGCCAGAACUACAGAAAUGUAGUUGACGAGGAGGAGGUUUAUCGAAUUUUCGGCGGCUGGCUCCAAA [A64C C67G], in data set [1], the “self-cleavage kobs at 40 uM GlcN6P” value was below 1e-05 s⁻¹. In addition, the “self-cleavage kobs at 160 uM GlcN6P” value in data set [3] is below 1e-05 s⁻¹. For the same variant, the “self-cleavage kobs at 640 uM GlcN6P” value in data set [4] was below 1e-05 s⁻¹. In addition, the “self-cleavage kobs at 2500 uM GlcN6P” value in data set [5] was below 1e-05 s⁻¹.

With AUAAAUGCGCCAGAACUACAGAAAUGUAGUUGACCAGGAGGAGGUUUAUCGAAUUUUCGGCAGAUGCCUCCAAA [A6U G35C G62A], in data set [1], the “self-cleavage kobs at 40 uM GlcN6P” value is below 1e-05 s⁻¹. In addition, the “self-cleavage kobs at 160 uM GlcN6P” value in data set [3] is below 1e-05 s⁻¹. The “self-cleavage kobs at 640 uM GlcN6P” value in data set [4] is below 1e-05 s⁻¹. Moreover, the “self-cleavage kobs at 2500 uM GlcN6P” value in data set [5] was below 1e-05 s⁻¹. In data set [2], the “self-cleavage kobs at 10000 uM GlcN6P” value was below 1e-05 s⁻¹.

On to AUAAAAGCGCCAGAACUACAGAAAUGUACUUGACGAGGACGAGGUUUAUCGAAUUUUCGGCGGACGCCUCCAAA [G29C G40C U65C], for which the “self-cleavage kobs at 40 uM GlcN6P” value in data set [1] was below 1e-05 s⁻¹.

On to AUAAAAGCGUCAGAACUACAGAAAUGUAGUUGACGAGGAGGAGGUUUACCGAAUUUUCGGCGGAUGCCUCCAAA [C10U U49C], for which the “self-cleavage kobs at 40 uM GlcN6P” value in data set [1] was below 1e-05 s⁻¹. Also, the “self-cleavage kobs at 640 uM GlcN6P” value in data set [4] was below 1e-05 s⁻¹. In addition, in data set [5], the “self-cleavage kobs at 2500 uM GlcN6P” value was below 1e-05 s⁻¹. Further, in data set [2], the “self-cleavage kobs at 10000 uM GlcN6P” value is below 1e-05 s⁻¹.

As to AUAAAAGCACCAGAACUACAGAAAUGUAGUUGACGAGGAGGCGGUUUAUCGAAUUUUCGGCGGAUGCCUCGAAA [G9A A42C C71G], the “self-cleavage kobs at 40 uM GlcN6P” value in data set [1] was below 1e-05 s⁻¹.

In the case of AUAAAAGCGCCAUAACUACAGAAAUGUAGUCGACGAGGAGGAGGUUUAUGGAAUUUUCGGCGUAUGCCUCCAAA [G13U U31C C50G G63U], in data set [1], the “self-cleavage kobs at 40 uM GlcN6P” value was below 1e-05 s⁻¹.

AUAAAAGCGCCAGAACUACAGAAAUGUAGUUGACGAGGAGGUGGUUUAUCGAAUUUUCGGCGGACGCCUCCAAA [A42U U65C]: the “self-cleavage kobs at 40 uM GlcN6P” value in data set [1] was below 1e-05 s⁻¹. The “self-cleavage kobs at 160 uM GlcN6P” value in data set [3] was below 1e-05 s⁻¹. Further, in data set [4], the “self-cleavage kobs at 640 uM GlcN6P” value is below 1e-05 s⁻¹. Further, the “self-cleavage kobs at 2500 uM GlcN6P” value in data set [5] was below 1e-05 s⁻¹. Moreover, the “self-cleavage kobs at 10000 uM GlcN6P” value in data set [2] was below 1e-05 s⁻¹.

Regarding AUAAAAGCGCCAGAACUACAGAAAUGUAGUUGACGAGGAGGAGGUUUAUCGAAUUUUCUGUGGAUGCCUCCAAA [G59U C61U], the “self-cleavage kobs at 40 uM GlcN6P” value in data set [1] is below 1e-05 s⁻¹. Further, the “self-cleavage kobs at 640 uM GlcN6P” value in data set [4] is below 1e-05 s⁻¹. The “self-cleavage kobs at 10000 uM GlcN6P” value in data set [2] is below 1e-05 s⁻¹.

On to AUAAAAGCGCCAGAACUACAGAAAUGUAGUUGACGAGUAGGAGGUUUCUCGAAUUUUCGGCGGAUGCCUCGAAA [G38U A48C C71G], for which, in data set [1], the “self-cleavage kobs at 40 uM GlcN6P” value was below 1e-05 s⁻¹. Further, in data set [2], the “self-cleavage kobs at 10000 uM GlcN6P” value is below 1e-05 s⁻¹.

AUAAAAGCGCCAGAACUACAGAAAUGUAGUUGACGAGGCGGAGGUUUAUCGAAUUUUCGCCGGAUGCUUCCAAA [A39C G60C C68U]: in data set [1], the “self-cleavage kobs at 40 uM GlcN6P” value was below 1e-05 s⁻¹. The “self-cleavage kobs at 160 uM GlcN6P” value in data set [3] was below 1e-05 s⁻¹. In data set [4], the “self-cleavage kobs at 640 uM GlcN6P” value was below 1e-05 s⁻¹.

AUAAAAGCGCCAGAACUACAGAAAUGUAGUUGACGAGGAGGAGUUUUAUCCAAUUUUCGGCGGAUGCCUCCAAA [G44U G51C]: the “self-cleavage kobs at 40 uM GlcN6P” value in data set [1] is below 1e-05 s⁻¹. Moreover, the “self-cleavage kobs at 160 uM GlcN6P” value in data set [3] was below 1e-05 s⁻¹. The “self-cleavage kobs at 640 uM GlcN6P” value in data set [4] was below 1e-05 s⁻¹. The “self-cleavage kobs at 2500 uM GlcN6P” value in data set [5] was below 1e-05 s⁻¹. Also, in data set [2], the “self-cleavage kobs at 10000 uM GlcN6P” value is below 1e-05 s⁻¹.

AUAAAAGCGCCAGAACUACAGAAAUGUAGUUGACGAGGAGGAGGCUUAUCGAAUUUUCGGCGUAUGCCUCCAAA [U45C G63U]: the “self-cleavage kobs at 40 uM GlcN6P” value in data set [1] is below 1e-05 s⁻¹. In addition, in data set [3], the “self-cleavage kobs at 160 uM GlcN6P” value is below 1e-05 s⁻¹. Besides, the “self-cleavage kobs at 640 uM GlcN6P” value in data set [4] was below 1e-05 s⁻¹. Moreover, the “self-cleavage kobs at 2500 uM GlcN6P” value in data set [5] is below 1e-05 s⁻¹. Also, the “self-cleavage kobs at 10000 uM GlcN6P” value in data set [2] was below 1e-05 s⁻¹.

For the variant AUAAAAGCGCCAGAACUACAGAAAUGUAGUUGACGAGGAGGAGGCUUAUGGAAUUUUCGGCGGAUGCCUCCAAA [U45C C50G], the “self-cleavage kobs at 40 uM GlcN6P” value in data set [1] was below 1e-05 s⁻¹. Besides, the “self-cleavage kobs at 160 uM GlcN6P” value in data set [3] is below 1e-05 s⁻¹. The “self-cleavage kobs at 640 uM GlcN6P” value in data set [4] is below 1e-05 s⁻¹. Moreover, the “self-cleavage kobs at 2500 uM GlcN6P” value in data set [5] was below 1e-05 s⁻¹. Moreover, in data set [2], the “self-cleavage kobs at 10000 uM GlcN6P” value is below 1e-05 s⁻¹.

As for AUAAAAGCGCCGGAACUACAGAAAUGUAGUUGACGAGGAGGAGGUUUAUCGAAUUUACGGCGGAUGCCUCCAAA [A12G U57A], the “self-cleavage kobs at 40 uM GlcN6P” value in data set [1] was below 1e-05 s⁻¹. The “self-cleavage kobs at 10000 uM GlcN6P” value in data set [2] worked out at 4.27e-05 ± 9.1e-06 s⁻¹.

As to AUAAAAGCGCCAGAACUACAGAAAUGUAGUUGACGAGGAGGAGGUUUAUCGAAUAUUCGGCUGAUGCCUCCAAA [U55A G62U], in data set [1], the “self-cleavage kobs at 40 uM GlcN6P” value was below 1e-05 s⁻¹. The “self-cleavage kobs at 640 uM GlcN6P” value in data set [4] is below 1e-05 s⁻¹. Besides, the “self-cleavage kobs at 2500 uM GlcN6P” value in data set [5] was below 1e-05 s⁻¹. The “self-cleavage kobs at 10000 uM GlcN6P” value in data set [2] was below 1e-05 s⁻¹.

Take AUAAAGGCGCCAGAACUACAGAAAUGUAGUUGACGCGGAGGAGGUUUAUCUAAUUUUCGGCGGAUGCCUCCAAA [A6G A36C G51U]: the “self-cleavage kobs at 40 uM GlcN6P” value in data set [1] is below 1e-05 s⁻¹. The “self-cleavage kobs at 10000 uM GlcN6P” value in data set [2] is below 1e-05 s⁻¹.

AUAAAAGCGCCAGAACUACAGAAAUGUAUUUGACGAGGAGGAGGUUUAUCGACUUUUCGGCGGAUGCUUCCAAA [G29U A53C C68U]: in data set [1], the “self-cleavage kobs at 40 uM GlcN6P” value was below 1e-05 s⁻¹. For the same variant, the “self-cleavage kobs at 10000 uM GlcN6P” value in data set [2] was determined as 3.37e-05 ± 1.6e-05 s⁻¹.

Turning to AUAAAAGUGCCACAACUACAGAAAUGUAGUUGACGAGGAGGAGGUUUAUCGAAUUUUCGGCGGAUGCCUCCAAA [C8U G13C], the “self-cleavage kobs at 40 uM GlcN6P” value in data set [1] was below 1e-05 s⁻¹. Further, the “self-cleavage kobs at 160 uM GlcN6P” value in data set [3] was below 1e-05 s⁻¹. Besides, the “self-cleavage kobs at 640 uM GlcN6P” value in data set [4] is below 1e-05 s⁻¹. Also, in data set [2], the “self-cleavage kobs at 10000 uM GlcN6P” value is below 1e-05 s⁻¹.
